In PMC9958131 (Nature Communications, 2023):

B1: Q7Z3Y7 (protein)
chain: MSLQFSNGSRHVCLRSGAGSVRPLNGGAGFAGSSACGGSVAGSEFSCALGGGLGSVPGGSHAGGALGNAACIGFAGSEGGLLSGNEKVTMQNLNDRLASYLDNVRALEEANAELERKIKGWYEKYGPGSCRGLDHDYSRYHLTIEDLKNKIISSTTTNANVILQIDNARLAADDFRLKYENELTLHQNVEADINGLRRVLDELTLCRTDQELQYESLSEEMTYLKKNHEEEMKALQCAAGGNVNVEMNAAPGVDLAVLLNNMRAEYEALAEQNRKDAEAWFNEKSASLQQQISHDSGAATFARSQLTEMRRTLQTLEIQLQSLMATKHSLECSLTETESNYCTQLAQIQAQIGALEEQLHQVRTETEGQKLEYEHLLDVKVHLEKEIETYCRLIDGDGNSCSKSKGFGSGSPGNSSKDLSKTTLVKTVVEELDQRGKVLSSRIHSIEEKTSKMTNGKTEQRVPF
B2: Q5T749 (protein)
chain: MCDQQQIQCRLPLQQCCVKGPSFCSSQSPFAQSQVVVQAPCEMQIVDCPASCPVQVCQVSDQAPCQSQTTQVKCQSKTKQVKGQAQCQSKTTQVKGQAASQSQTSSVQSQAPCQSEVSYVQCEASQPVQTCFVECAPVCYTETCYVECPVQNYVPCPAPQPVQMYRGRPAVCQPQGRFSTQCQYQGSYSSCGPQFQSRATCNNYTPQFQLRPSYSSCFPQYRSRTSFSPCVPQCQTQGSYGSFTEQHRSRSTSRCLPPPRRLQLFPRSCSPPRRFEPCSSSYLPLRPSEGFPNYCTPPRRSEPIYNSRCPRRPISSCSQRRGPKCRIEISSPCCPRQVPPQRCPVEIPPIRRRSQSCGPQPSWGASCPELRPHVEPRPLPSFCPPRRLDQCPESPLQRCPPPAPRPRLRPEPCISLEPRPRPLPRQLSEPCLYPEPLPALRPTPRPVPLPRPGQCEIPEPRPCLQPCEHPEPCPRPEPIPLPAPCPSPEPCRETWRSPSP
B3: Fibrinogen b: β chain of human fibrinogen, RA autoantigen; native or citrullinated by PAD2 or PAD4 (protein)
chain: MKRMVSWSFHKLKTMKHLLLLLLCVFLVKSQGVNDNEEGFFSARGHRPLDKKREEAPSLRPAPPPISGGGYRARPAKAAATQKKVERKAPDAGGCLHADPDLGVLCPTGCQLQEALLQQERPIRNSVDELNNNVEAVSQTSSSSFQYMYLLKDLWQKRQKQVKDNENVVNEYSSELEKHQLYIDETVNSNIPTNLRVLRSILENLRSKIQKLESDVSAQMEYCRTPCTVSCNIPVVSGKECEEIIRKGGETSEMYLIQPDSSVKPYRVYCDMNTENGGWTVIQNRQDGSVDFGRKWDPYKQGFGNVATNTDGKNYCGLPGEYWLGNDKISQLTRMGPTELLIEMEDWKGDKVKAHYGGFTVQNEANKYQISVNKYRGTAGNALMDGASQLMGENRTMTIHNGMFFSTYDRDNDGWLTSDPRKQCSKEDGGGWWYNRCHAANPNGRYYWGGQYTWDMAKHGTDDGVVWMNWKGSWYSMRKMSMKIRPFFPQQ
B4: Q02413 (protein, UniProt Q02413 1-1049, looked up)
chain: MDWSFFRVVAMLFIFLVVVEVNSEFRIQVRDYNTKNGTIKWHSIRRQKREWIKFAAACREGEDNSKRNPIAKIHSDCAANQQVTYRISGVGIDQPPYGIFVINQKTGEINITSIVDREVTPFFIIYCRALNSMGQDLERPLELRVRVLDINDNPPVFSMATFAGQIEENSNANTLVMILNATDADEPNNLNSKIAFKIIRQEPSDSPMFIINRNTGEIRTMNNFLDREQYGQYALAVRGSDRDGGADGMSAECECNIKILDVNDNIPYMEQSSYTIEIQENTLNSNLLEIRVIDLDEEFSANWMAVIFFISGNEGNWFEIEMNERTNVGILKVVKPLDYEAMQSLQLSIGVRNKAEFHHSIMSQYKLKASAISVTVLNVIEGPVFRPGSKTYVVTGNMGSNDKVGDFVATDLDTGRPSTTVRYVMGNNPADLLAVDSRTGKLTLKNKVTKEQYNMLGGKYQGTILSIDDNLQRTCTGTININIQSFGNDDRTNTEPNTKITTNTGRQESTSSTNYDTSTTSTDSSQVYSSEPGNGAKDLLSDNVHFGPAGIGLLIMGFLVLGLVPFLMICCDCGGAPRSAAGFEPVPECSDGAIHSWAVEGPQPEPRDITTVIPQIPPDNANIIECIDNSGVYTNEYGGREMQDLGGGERMTGFELTEGVKTSGMPEICQEYSGTLRRNSMRECREGGLNMNFMESYFCQKAYAYADEDEGRPSNDCLLIYDIEGVGSPAGSVGCCSFIGEDLDDSFLDTLGPKFKKLADISLGKESYPDLDPSWPPQSTEPVCLPQETEPVVSGHPPISPHFGTTTVISESTYPSGPGVLHPKPILDPLGYGNVTVTESYTTSDTLKPSVHVHDNRPASNVVVTERVVGPISGADLHGMLEMPDLRDGSNVIVTERVIAPSSSLPTSLTIHHPRESSNVVVTERVIQPTSGMIGSLSMHPELANAHNVIVTERVVSGAGVTGISGTTGISGGIGSSGLVGTSMGAGSGALSGAGISGGGIGLSSLGGTASIGHMRSSSDHHFNQTIGSASPSTARSRITKYSTVQYSK
modifications: full-length
B5: Q12805 (protein, UniProt Q12805 1-493, looked up)
chain: MLKALFLTMLTLALVKSQDTEETITYTQCTDGYEWDPVRQQCKDIDECDIVPDACKGGMKCVNHYGGYLCLPKTAQIIVNNEQPQQETQPAEGTSGATTGVVAASSMATSGVLPGGGFVASAAAVAGPEMQTGRNNFVIRRNPADPQRIPSNPSHRIQCAAGYEQSEHNVCQDIDECTAGTHNCRADQVCINLRGSFACQCPPGYQKRGEQCVDIDECTIPPYCHQRCVNTPGSFYCQCSPGFQLAANNYTCVDINECDASNQCAQQCYNILGSFICQCNQGYELSSDRLNCEDIDECRTSSYLCQYQCVNEPGKFSCMCPQGYQVVRSRTCQDINECETTNECREDEMCWNYHGGFRCYPRNPCQDPYILTPENRCVCPVSNAMCRELPQSIVYKYMSIRSDRSVPSDIFQIQATTIYANTINTFRIKSGNENGEFYLRQTSPVSAMLVLVKSLSGPREHIVDLEMLTVSSIGTFRTSSVLRLTIIVGPFSF
modifications: full-length
B6: P12035 (protein, UniProt P12035 1-628, looked up)
chain: MSRQASKTSGGGSQGFSGRSAVVSGSSRMSCVAHSGGAGGGAYGFRSGAGGFGSRSLYNLGGNKSISISVAAGGSRAGGFGGGRSSCAFAGGYGGGFGSGYGGGFGGGFGGGRGMGGGFGGAGGFGGAGGFGGAGGFGGPGGFGGSGGFGGPGSLGSPGGFGPGGFPGGIQEVTINQSLLQPLNVEIDPQIGQVKAQEREQIKTLNNKFASFIDKVRFLEQQNKVLETKWNLLQQQGTSSISGTNNLEPLFENHINYLRSYLDNILGERGRLDSELKNMEDLVEDFKKKYEDEINKRTAAENEFVTLKKDVDSAYMNKVELQAKVDALIDEIDFLRTLYDAELSQMQSHISDTSVVLSMDNNRSLDLDSIIAEVRAQYEDIAQRSKAEAEALYQTKLGELQTTAGRHGDDLRNTKSEIIELNRMIQRLRAEIEGVKKQNANLQTAIAEAEQHGEMALKDANAKLQELQAALQQAKDDLARLLRDYQELMNVKLALDVEIATYRKLLEGEEYRMSGECPSAVSISVVSSSTTSASAGGYGGGYGGGMGGGLGGGFSAGGGSGSGFGRGGGGGIGGGFGGGSSGFSGGSGFGSISGARYGVSGGGFSSASNRGGSIKFSQSSQSSQRYSR
modifications: full-length
B7: P01871 (protein)
chain: GSASAPTLFPLVSCENSPSDTSSVAVGCLAQDFLPDSITFSWKYKNNSDISSTRGFPSVLRGGKYAATSQVLLPSKDVMQGTDEHVVCKVQHPNGNKEKNVPLPVIAELPPKVSVFVPPRDGFFGNPRKSKLICQATGFSPRQIQVSWLREGKQVGSGVTTDQVQAEAKESGPTTYKVTSTLTIKESDWLGQSMFTCRVDHRGLTFQQNASSMCVPDQDTAIRVFAIPPSFASIFLTKSTKLTCLVTDLTTYDSVTISWTRQNGEAVKTHTNISESHPNATFSAVGEASICEDDWNSGERFTCTVTHTDLPSPLKQTISRPKGVALHRPDVYLLPPAREQLNLRESATITCLVTGFSPADVFVQWMQRGQPLSPEKYVTSAPMPEPQAPGRYFAHSILTVSEEEWNTGETYTCVVAHEALPNRVTERTVDKSTGKPTLYNVSLVMSDTAGTCY
B8: B1AHL2 (protein)
chain: MERAAPSRRVPLPLLLLGGLALLAAGVDADVLLEACCADGHRMATHQKDCSLPYATESKECRAVGLASLCQDLNGAWAVWKVGRASQAEGTASARAQRRGMVQEQCCHSQLEELHCATGISLANEQDRCATPHGDNASLEATFVKRCCHCCLLGRAAQAQGQSCEYSLMVGYQCGQVFQACCVKSQETGDLDVGGLQETDKIIEVEEEQEDPYLNDRCRGGGPCKQQCRDTGDEVVCSCFVGYQLLSDGVSCEDVNECITGSHSCRLGESCINTVGSFRCQRDSSCGTGYELTEDNSCKDIDECESGIHNCLPDFICQNTLGSFRCRPKLQCKSGFIQDALGNCIDINECLSISAPCPIGHTCINTEGSYTCQKNVPNCGRGYHLNEEGTRCVDVDECAPPAEPCGKGHRCVNSPGSFRCECKTGYYFDGISRMCVDVNECQRYPGRLCGHKCENTLGSYLCSCSVGFRLSVDGRSCEDINECSSSPCSQECANVYGSYQ
B9: A0A0G2JMB2 (protein)
chain: ASPTSPKVFPLSLDSTPQDGNVVVACLVQGFFPQEPLSVTWSESGQNVTARNFPPSQDASGDLYTTSSQLTLPATQCPDGKSVTCHVKHYTNPSQDVTVPCPVPPPPPCCHPRLSLHRPALEDLLLGSEANLTCTLTGLRDASGATFTWTPSSGKSAVQGPPERDLCGCYSVSSVLPGCAQPWNHGETFTCTAAHPELKTPLTANITKSGNTFRPEVHLLPPPSEELALNELVTLTCLARGFSPKDVLVRWLQGSQELPREKYLTWASRQEPSQGTTTFAVTSILRVAAEDWKKGDTFSCMVGHEALPLAFTQKTIDRLAGKPTHVNVSVVMAEVDGTCY
B10: Q8N1N4 (protein)
chain: MSLSPCRAQRGFSARSACSARSRGRSRGGFSSRGGFSSRSLNSFGGCLEGSRGSTWGSGGRLGVRFGEWSGGPGLSLCPPGGIQEVTINQNLLTPLKIEIDPQFQVVRTQETQEIRTLNNQFASFIDKVRFLEQQNKVLETKWHLLQQQGLSGSQQGLEPVFEACLDQLRKQLEQLQGERGALDAELKACRDQEEEYKSKYEEEAHRRATLENDFVVLKKDVDGVFLSKMELEGKLEALREYLYFLKHLNEEELGQLQTQASDTSVVLSMDNNRYLDFSSIITEVRARYEEIARSSKAEAEALYQTKYQELQVSAQLHGDRMQETKVQISQLHQEIQRLQSQTENLKKQNASLQAAITDAEQRGELALKDAQAKVDELEAALRMAKQNLARLLCEYQELTSTKLSLDVEIATYRRLLEGEECRMSGECTSQVTISSVGGSAVMSGGVGGGLGSTCGLGSGKGSPGSCCTSIVTGGSNIILGSGKDPVLDSCSVSGSSAGS

tested on: PAD2 and PAD4; assay: Citrullination site mapping of fibrinogen and vimentin by trypsin digestion and mass spectrometry (protein-level sheet, one search over native, PAD2-cit and PAD4-cit samples); format: biochemical, human; conditions: modified residues found per protein; Deamidated [R..] = deamidated (citrullinated) arginine positions; trypsin digest, Sequest HT; not split by sample (native, PAD2-citrullinated, PAD4-citrullinated fibrinogen and vimentin)
Source text: Description: Raw mass spectrometry data for proteolytic mapping of fibrinogen, vimentin, and hnRNP A2/B1 by cathepsins B, S, and H (sheets 1-6); citrullination site mapping of fibrinogen and vimentin by trypsin digestion (sheets 7-8); and the natural antigen processing assay with native, PAD2-citrullinated (PAD2-cit), and PAD4-citrullinated (PAD4-cit) fibrinogen (sheets 9-11).

**Q.** With B1 as the molecule, how does the Modifications read?
**A.** Deamidated [R96]

**Q.** For B2, which Modifications is on record?
**A.** Deamidated [R211; R248; R371; R554]

**Q.** B3 was tested. Which Modifications did it give?
**A.** Deamidated [R53; R60; R72; R74; R158; R196; R199; R224; R246; R267; R285; R334; R376; R395; R410; R421; R436; R445; R478]

**Q.** With B4 as the molecule, how does the Modifications read?
**A.** Deamidated [R416; R607]

**Q.** Which Modifications does the source give for B5 here?
**A.** Deamidated [R185; R208; R227; R328; R345]

**Q.** With B6 as the molecule, how does the Modifications read?
**A.** Deamidated [R217]

**Q.** For B7, which Modifications is on record?
**A.** Deamidated [R423]

**Q.** Which Modifications does the source give for B8 here?
**A.** Deamidated [R217; R219; R325; R327; R381; R391; R505; R623; R643; R671]

**Q.** How did the Modifications turn out when B9 was run?
**A.** Deamidated [R240; R250; R260]

**Q.** With B10 as the molecule, how does the Modifications read?
**A.** Deamidated [R130]
